7 molecules from PMC2823488 can be followed below.

What all share (assay): EMSA
(In EMSA bound probe runs differently from free probe, usually more slowly.)

The target in series [1] is TLS (UniProt P35637 1-526).
Series [2] addresses GST-TLS 211-526 (UniProt P35637 211-526).
For series [3], the target named is GST-TLS 373-526 (UniProt P35637 373-526).
GST-TLS 373-526, sequence (P35637 373-526): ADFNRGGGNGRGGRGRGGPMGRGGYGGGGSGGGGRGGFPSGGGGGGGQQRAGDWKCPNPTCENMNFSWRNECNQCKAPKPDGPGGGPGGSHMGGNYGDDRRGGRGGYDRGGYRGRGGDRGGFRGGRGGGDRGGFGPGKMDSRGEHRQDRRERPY

TLS, sequence (P35637 whole entry): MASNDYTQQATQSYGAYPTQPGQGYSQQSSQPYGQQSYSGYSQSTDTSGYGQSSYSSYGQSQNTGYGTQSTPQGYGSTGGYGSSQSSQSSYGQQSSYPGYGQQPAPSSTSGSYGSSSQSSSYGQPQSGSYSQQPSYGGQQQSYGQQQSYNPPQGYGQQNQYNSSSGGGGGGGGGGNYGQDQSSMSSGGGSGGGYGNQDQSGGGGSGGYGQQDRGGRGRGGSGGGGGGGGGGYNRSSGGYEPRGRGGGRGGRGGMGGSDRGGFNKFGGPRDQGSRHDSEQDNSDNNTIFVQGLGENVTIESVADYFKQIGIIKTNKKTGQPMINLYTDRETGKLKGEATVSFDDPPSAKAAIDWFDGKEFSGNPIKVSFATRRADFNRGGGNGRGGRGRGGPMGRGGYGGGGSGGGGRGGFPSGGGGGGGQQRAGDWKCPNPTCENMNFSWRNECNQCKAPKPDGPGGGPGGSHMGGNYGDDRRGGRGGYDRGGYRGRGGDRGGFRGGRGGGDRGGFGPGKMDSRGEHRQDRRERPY
GST-TLS 211-526, sequence (P35637 211-526): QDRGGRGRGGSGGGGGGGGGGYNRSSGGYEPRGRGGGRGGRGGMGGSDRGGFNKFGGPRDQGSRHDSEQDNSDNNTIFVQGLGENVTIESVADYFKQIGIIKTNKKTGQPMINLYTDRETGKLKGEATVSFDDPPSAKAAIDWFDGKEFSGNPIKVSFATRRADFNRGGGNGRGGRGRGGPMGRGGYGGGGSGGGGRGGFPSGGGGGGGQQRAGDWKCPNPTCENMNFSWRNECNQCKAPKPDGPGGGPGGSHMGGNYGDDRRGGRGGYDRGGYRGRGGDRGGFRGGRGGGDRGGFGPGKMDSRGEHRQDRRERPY

As for UGGCAUCGUGAUGGACUCCGGUGAC (ssRNA) [β-actin RNA], the binding result in series [1] is given as “no binding”.

CCCGGGAUUUAGGGGGUGAGGUGGA (ssRNA) [-341a]: the binding result in series [1] was “binds”.

B1: RNA:DNA hybrid of -454s (DNA:RNA)
RNA: UCUGCCGGCUUGGAUAUGGGGUGUC
DNA: GACACCCCATATCCAAGCCGGCAGA
For the molecule B1, the binding result in series [1] is “no binding”.

With UCUGCCGGCUUGGAUAUGGGGUGUC (ssRNA) [-454s (RNA in Fig. 4g)], in series [1], the binding result is given as “binds”.

On to GACACCCCATATCCAAGCCGGCAGA (ssDNA) [DNA (complement of -454s)], for which, in series [1], the binding result was “no binding”.

For the molecule UUGUAUUUUGAGCUAGUUUGGUGAC (ssRNA) [GGUG-oligonucleotide], the binding result in series [1], in series [2] and in series [3] was “binds” in each case.

As to UCCAGCAGCAGCCCAAGAUGGUGGC (ssRNA) [-764a], in series [1], the binding result was “no binding”.
